The text below walks through data of PMC2873776.

For experiment [1], the target named is CheA:CheW complex (CheAΔ289 dimer with one CheW bound to each subunit) (T. maritima) (UniProt Q56310). Put plainly: pulsed dipolar ESR spectroscopy.
Experiment [2] addresses CheA (Thermotoga maritima) (UniProt Q56310). To be noted: cited from earlier work.
The target of experiment [3] is CheAΔ289 (290–671) (T. maritima) (UniProt Q56310). The experiment is described as follows: pulsed dipolar ESR spectroscopy.

Chain of CheA (Thermotoga maritima) (Q56310 whole entry): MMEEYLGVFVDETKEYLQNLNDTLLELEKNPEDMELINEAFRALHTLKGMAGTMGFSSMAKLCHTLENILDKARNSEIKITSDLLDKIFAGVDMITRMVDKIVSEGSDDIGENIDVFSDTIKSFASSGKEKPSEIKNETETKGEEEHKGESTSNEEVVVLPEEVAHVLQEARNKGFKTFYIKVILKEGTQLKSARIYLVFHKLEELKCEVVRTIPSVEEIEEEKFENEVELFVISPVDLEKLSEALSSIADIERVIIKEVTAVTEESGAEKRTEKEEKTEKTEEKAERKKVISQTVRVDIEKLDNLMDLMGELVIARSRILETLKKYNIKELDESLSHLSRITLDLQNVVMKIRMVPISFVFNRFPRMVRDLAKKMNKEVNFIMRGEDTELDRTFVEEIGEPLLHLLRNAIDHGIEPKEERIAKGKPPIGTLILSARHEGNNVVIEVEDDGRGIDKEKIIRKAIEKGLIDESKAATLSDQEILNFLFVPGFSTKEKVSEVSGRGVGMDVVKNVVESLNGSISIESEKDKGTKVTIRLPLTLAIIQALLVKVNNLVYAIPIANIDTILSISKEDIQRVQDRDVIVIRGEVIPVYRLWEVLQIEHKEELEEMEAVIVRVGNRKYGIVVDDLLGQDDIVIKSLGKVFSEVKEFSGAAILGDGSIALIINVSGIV
Chain of CheW (Q56311 whole entry): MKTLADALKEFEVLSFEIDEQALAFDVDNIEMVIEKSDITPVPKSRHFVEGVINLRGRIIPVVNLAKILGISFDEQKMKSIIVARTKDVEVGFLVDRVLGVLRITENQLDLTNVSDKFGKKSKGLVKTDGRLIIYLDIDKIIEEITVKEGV

In the case of “Tm14C (Tm14: residues 40–213) (domain or fragment)”, the stoichiometry N (Tm14 dimer per CheA:CheW dimer) in experiment [1] amounted to 1.
What is called Kd is the constant that tells how readily two partners part at equilibrium. In the case of CheW (from UniProt Q56311), in experiment [2], the Kd was 0.1 µM.
The stoichiometry N is a count of units in the complex or per binding partner. Take “CheAΔ289 (290–671) (from UniProt Q56310 290-671) (domain or fragment)”: the stoichiometry N in experiment [3] was 4.
